Measurements reported in IntAct's records for PubMed 31515488.

B1: Zinc finger and SCAN domain-containing protein 9 (Homo sapiens), O15535 (parent)
chain: MNTNSKEVLSLGVQVPEAWEELLTMKVEAKSHLQWQESRLKRSNPLAREIFRRHFRQLCYQETPGPREALTRLQELCYQWLRPHVSTKEQILDLLVLEQFLSILPKELQGWVREHCPESGEEAVILLEDLERELDEPQHEMVAHRHRQEVLCKEMVPLAEQTPLTLQSQPKEPQLTCDSAQKCHSIGETDEVTKTEDRELVLRKDCPKIVEPHGKMFNEQTWEVSQQDPSHGEVGEHKDRIERQWGNLLGEGQHKCDECGKSFTQSSGLIRHQRIHTGERPYECNECGKAFSRSSGLFNHRGIHNIQKRYHCKECGKVFSQSAGLIQHQRIHKGEKPYQCSQCSKSYSRRSFLIEHQRSHTGERPHQCIECGKSFNRHCNLIRHQKIHTVAELV
B2: EF-hand domain-containing family member C2 (Homo sapiens), Q5JST6 (parent)
chain: MALPLLPGNSFNRNVGKEKFHKSQHWGFCNNVMMLVSDEKPGIGGEPLLGQKIKPKCSIYPKGDGSDVPSWVAFDKQVLSFDAYLEEEVLDKSQTNYRIRYYKIYFYPEDDTIQVNEPEVKNSGLLQGTSIRRHRITLPPPDEDQFYTVYHFNVGTEVVFYGRTFKIYDCDAFTRNFLRKIGVKVNPPVQCPEDPYMKIRREVVEHVEPLRPYESLDTLKQFLQYHGKILCFFCLWDDSVSMFGDRRELILHYFLCDDTIEIKELLPHSSGRDALKMFLRRSKLPKNCPPRVYQPGQITDRAVLNSYGDFIKNQADGYLFDRYKLGKVDQEFYKDSDLSLGVTINVWGRKVLLYDCDEFTKSYYKSKYGIENFTSVSCKPPSPPPKIERKFPPYNGFGSEEDSLRNCIDLKPTPHRRNFKKFMEKDSYGSKSNILRFFAKLVTDKCVDLDRMFVISYYLGDDTISVFEPIERNSGIAGGMFLKRSRVKKPGQEVFKSELSEYIKAEELYIGVTVNVNGYLFRLLNADEYTLNYMEQNTDKYPFSNLKLALQKLKQEEGKSRELKQVFKAADSKHTNMVDYNTFRDILMSLTVGNLAEQEFVTIARHYRVPEGTCSDMDFLIALAHEKFKKNMFENFDTFIYSCVYEDREKKNVLPTKDIKRLCKSSRLPLSDDLLESLLSRFEDSEKQIDYKSFFSALNWRKNPVPELQPASYLKERCEDVWLGMPSPIPAKYIDYWTFLKDAFGLEEE
B3: Zinc finger protein 581 (Homo sapiens), Q9P0T4 (parent)
chain: MLVLPSPCPQPLAFSSVETMEGPPRRTCRSPEPGPSSSIGSPQASSPPRPNHYLLIDTQGVPYTVLVDEESQREPGASGAPGQKKCYSCPVCSRVFEYMSYLQRHSITHSEVKPFECDICGKAFKRASHLARHHSIHLAGGGRPHGCPLCPRRFRDAGELAQHSRVHSGERPFQCPHCPRRFMEQNTLQKHTRWKHP

Variants of: B1
Conditions: with zn446_human ZNF446, Q9NWS9
Sequence of zn446_human ZNF446, Q9NWS9 (Q9NWS9 whole entry): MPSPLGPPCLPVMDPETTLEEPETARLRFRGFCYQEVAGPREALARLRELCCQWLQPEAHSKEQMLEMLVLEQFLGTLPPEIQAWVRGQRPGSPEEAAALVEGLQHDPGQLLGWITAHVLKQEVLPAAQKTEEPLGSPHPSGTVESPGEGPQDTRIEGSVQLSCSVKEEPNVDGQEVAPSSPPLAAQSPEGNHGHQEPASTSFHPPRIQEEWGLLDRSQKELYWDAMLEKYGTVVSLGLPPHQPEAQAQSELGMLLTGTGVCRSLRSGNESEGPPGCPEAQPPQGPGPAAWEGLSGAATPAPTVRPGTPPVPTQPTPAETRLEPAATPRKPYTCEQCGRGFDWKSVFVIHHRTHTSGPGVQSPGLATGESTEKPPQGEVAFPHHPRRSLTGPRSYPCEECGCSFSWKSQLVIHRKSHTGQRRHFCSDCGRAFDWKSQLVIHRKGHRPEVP

Row | Variant | effect of a mutation on the interaction
1 | Q34R | with no effect

Variants of: B2
Conditions: with plod3_human PLOD3, O60568
Sequence of plod3_human PLOD3, O60568 (O60568 whole entry): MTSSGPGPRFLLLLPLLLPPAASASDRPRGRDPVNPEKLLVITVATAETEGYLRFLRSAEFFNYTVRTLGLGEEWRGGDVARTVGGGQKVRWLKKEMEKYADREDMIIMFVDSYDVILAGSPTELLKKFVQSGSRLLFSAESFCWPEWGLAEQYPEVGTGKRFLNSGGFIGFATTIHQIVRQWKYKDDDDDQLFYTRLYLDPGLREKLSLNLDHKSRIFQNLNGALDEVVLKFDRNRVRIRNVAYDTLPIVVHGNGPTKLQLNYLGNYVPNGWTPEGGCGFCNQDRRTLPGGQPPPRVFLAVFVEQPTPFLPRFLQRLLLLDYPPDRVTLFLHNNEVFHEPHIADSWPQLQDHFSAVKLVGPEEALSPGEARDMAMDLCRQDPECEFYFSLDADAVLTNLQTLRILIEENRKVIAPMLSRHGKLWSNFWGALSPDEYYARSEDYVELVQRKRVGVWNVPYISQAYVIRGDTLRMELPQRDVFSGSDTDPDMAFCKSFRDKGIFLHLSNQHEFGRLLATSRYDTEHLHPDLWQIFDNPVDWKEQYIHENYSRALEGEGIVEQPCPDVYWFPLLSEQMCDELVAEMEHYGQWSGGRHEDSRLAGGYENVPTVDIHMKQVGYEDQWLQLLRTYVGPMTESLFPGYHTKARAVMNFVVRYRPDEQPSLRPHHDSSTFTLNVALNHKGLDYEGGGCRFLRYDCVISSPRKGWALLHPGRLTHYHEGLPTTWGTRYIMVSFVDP

Row | Variant | effect of a mutation on the interaction
2 | N31S | disrupting interaction strength
3 | E507Q | disrupting interaction strength

Variants of: B2
Conditions: with ptk6_human PTK6, Q13882

Row | Variant | effect of a mutation on the interaction
4 | N31S | disrupting interaction strength

Variants of: B2
Conditions: with ercc3_human ERCC3, P19447
Sequence of ercc3_human ERCC3, P19447 (P19447 whole entry): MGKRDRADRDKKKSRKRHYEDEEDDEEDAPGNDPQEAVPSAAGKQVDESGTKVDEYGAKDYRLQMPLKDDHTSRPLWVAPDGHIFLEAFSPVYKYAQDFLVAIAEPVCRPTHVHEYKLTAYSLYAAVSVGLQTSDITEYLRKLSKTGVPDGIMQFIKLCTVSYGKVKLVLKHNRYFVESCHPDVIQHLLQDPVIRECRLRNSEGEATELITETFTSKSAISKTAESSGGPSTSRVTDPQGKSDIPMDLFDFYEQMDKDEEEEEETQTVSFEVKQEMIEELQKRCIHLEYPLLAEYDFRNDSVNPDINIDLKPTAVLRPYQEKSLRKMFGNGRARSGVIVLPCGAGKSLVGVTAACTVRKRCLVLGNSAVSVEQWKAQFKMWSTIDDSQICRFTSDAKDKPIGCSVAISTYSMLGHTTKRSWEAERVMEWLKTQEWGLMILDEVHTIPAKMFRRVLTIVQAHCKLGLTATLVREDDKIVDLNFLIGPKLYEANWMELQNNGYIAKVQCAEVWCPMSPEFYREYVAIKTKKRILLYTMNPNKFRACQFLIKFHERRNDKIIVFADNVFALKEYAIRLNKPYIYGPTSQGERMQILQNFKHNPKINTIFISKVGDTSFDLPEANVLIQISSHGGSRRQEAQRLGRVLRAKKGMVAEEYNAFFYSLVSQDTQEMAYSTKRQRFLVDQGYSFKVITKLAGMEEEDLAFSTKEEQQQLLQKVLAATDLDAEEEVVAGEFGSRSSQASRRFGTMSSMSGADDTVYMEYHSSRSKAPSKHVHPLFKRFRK

Row | Variant | effect of a mutation on the interaction
5 | N31S | disrupting interaction strength

Variants of: B2
Conditions: with mk09_human MAPK9, P45984

Row | Variant | effect of a mutation on the interaction
6 | N31S | disrupting interaction strength

Variants of: B2
Conditions: with ercc3_human ERCC3, P19447
Remark: another data set of the same source

Row | Variant | effect of a mutation on the interaction
7 | V376I | with no effect

Variants of: B2
Conditions: with ptk6_human PTK6, Q13882
Remark: another data set of the same source

Row | Variant | effect of a mutation on the interaction
8 | V376I | with no effect

Variants of: B2
Conditions: with mk09_human MAPK9, P45984
Remark: another data set of the same source

Row | Variant | effect of a mutation on the interaction
9 | V376I | with no effect

Variants of: B2
Conditions: with plod3_human PLOD3, O60568
Remark: another data set of the same source

Row | Variant | effect of a mutation on the interaction
10 | V376I | with no effect

Variants of: B3
Conditions: with cc136_human CCDC136, Q96JN2
Sequence of cc136_human CCDC136, Q96JN2 (Q96JN2 whole entry): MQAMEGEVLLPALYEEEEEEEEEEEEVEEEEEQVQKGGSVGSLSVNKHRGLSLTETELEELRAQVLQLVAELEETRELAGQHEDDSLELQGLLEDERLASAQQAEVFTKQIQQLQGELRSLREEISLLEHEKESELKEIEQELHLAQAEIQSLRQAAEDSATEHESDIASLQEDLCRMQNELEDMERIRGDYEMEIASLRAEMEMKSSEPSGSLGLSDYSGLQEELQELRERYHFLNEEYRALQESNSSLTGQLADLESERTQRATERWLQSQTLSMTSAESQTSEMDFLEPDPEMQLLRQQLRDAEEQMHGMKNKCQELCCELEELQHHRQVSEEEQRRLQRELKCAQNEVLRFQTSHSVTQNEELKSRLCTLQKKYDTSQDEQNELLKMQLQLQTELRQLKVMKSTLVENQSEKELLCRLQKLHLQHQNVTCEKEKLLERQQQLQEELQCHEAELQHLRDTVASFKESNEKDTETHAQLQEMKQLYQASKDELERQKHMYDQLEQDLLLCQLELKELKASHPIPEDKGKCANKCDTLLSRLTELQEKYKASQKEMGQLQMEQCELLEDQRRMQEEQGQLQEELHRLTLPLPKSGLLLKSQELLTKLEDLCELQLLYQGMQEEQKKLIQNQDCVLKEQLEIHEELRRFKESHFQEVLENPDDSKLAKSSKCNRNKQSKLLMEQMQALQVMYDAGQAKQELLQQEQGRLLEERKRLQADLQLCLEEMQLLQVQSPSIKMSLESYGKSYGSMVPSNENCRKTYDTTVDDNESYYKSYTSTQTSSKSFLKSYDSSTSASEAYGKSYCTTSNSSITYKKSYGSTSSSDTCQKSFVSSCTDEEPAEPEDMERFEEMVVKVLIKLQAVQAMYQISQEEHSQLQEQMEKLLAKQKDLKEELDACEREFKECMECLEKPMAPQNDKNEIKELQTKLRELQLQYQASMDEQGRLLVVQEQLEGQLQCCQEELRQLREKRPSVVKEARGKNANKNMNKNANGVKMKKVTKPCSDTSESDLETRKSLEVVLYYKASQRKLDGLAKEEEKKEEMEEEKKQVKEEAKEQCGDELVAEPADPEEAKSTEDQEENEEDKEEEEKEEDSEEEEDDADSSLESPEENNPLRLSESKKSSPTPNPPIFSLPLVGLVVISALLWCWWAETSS

Row | Variant | effect of a mutation on the interaction
11 | R143W | with no effect

Variants of: B3
Conditions: with mtus2_human MTUS2, Q5JR59
Sequence of mtus2_human MTUS2, Q5JR59 (Q5JR59 whole entry): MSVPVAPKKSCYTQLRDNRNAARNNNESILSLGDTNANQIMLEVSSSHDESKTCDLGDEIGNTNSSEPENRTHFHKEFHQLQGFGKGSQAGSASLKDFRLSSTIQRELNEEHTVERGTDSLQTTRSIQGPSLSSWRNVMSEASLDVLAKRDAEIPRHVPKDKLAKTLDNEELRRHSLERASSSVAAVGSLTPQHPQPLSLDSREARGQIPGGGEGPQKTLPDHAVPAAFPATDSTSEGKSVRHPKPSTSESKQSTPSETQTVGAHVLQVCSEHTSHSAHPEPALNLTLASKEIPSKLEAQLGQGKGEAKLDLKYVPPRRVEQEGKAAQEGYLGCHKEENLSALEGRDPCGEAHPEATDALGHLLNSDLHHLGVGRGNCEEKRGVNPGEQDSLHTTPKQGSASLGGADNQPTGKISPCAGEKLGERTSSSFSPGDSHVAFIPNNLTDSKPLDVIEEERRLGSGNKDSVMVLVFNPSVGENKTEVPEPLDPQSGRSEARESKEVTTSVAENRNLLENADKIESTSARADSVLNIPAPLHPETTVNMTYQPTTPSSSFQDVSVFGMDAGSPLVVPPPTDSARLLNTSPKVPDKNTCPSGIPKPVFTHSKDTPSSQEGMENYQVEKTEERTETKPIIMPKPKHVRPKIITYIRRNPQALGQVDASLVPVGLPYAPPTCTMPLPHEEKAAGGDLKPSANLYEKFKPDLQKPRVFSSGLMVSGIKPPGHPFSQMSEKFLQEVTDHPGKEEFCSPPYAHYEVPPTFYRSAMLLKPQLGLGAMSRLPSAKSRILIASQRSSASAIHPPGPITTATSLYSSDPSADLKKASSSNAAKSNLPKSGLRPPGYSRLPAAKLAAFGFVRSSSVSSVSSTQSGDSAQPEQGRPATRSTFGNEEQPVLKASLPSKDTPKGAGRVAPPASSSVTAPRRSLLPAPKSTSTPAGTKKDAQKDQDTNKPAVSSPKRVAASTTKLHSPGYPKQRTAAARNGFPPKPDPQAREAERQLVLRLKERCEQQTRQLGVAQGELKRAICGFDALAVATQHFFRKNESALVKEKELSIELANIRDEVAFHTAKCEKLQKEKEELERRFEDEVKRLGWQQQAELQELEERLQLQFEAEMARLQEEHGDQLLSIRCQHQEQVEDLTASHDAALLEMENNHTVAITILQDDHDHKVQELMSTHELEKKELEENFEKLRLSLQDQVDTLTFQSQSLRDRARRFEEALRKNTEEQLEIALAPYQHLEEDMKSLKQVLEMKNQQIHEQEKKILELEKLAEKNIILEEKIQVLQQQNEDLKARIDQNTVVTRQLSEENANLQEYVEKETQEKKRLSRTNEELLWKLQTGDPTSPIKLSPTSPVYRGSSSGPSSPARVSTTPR

Row | Variant | effect of a mutation on the interaction
12 | R143W | with no effect

Variants of: B3
Conditions: with tri23_human TRIM23, P36406
Sequence of tri23_human TRIM23, P36406 (P36406 whole entry): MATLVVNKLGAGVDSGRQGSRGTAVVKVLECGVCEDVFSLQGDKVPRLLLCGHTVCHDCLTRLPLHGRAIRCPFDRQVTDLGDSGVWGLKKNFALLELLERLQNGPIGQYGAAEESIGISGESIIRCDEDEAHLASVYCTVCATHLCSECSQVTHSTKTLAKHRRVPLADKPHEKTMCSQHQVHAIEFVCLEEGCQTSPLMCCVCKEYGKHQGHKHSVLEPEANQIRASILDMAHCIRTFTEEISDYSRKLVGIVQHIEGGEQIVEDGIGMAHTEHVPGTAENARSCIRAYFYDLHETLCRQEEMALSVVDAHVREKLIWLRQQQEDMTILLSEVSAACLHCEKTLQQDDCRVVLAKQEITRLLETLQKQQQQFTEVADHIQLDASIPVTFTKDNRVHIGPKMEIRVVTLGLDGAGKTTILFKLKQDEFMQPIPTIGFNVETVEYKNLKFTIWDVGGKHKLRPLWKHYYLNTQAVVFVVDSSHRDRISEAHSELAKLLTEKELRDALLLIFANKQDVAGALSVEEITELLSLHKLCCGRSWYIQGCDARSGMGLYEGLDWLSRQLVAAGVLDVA

Row | Variant | effect of a mutation on the interaction
13 | R143W | with no effect
